# In patent US6864054:
# Target: endogenous p53 (MRC5.SV40 cells; U-2 OS cells) (UniProt P04637)
# Assay: cell-based or functional assay
# endogenous p53 (MRC5.SV40 cells; U-2 OS cells), sequence (P04637 whole entry): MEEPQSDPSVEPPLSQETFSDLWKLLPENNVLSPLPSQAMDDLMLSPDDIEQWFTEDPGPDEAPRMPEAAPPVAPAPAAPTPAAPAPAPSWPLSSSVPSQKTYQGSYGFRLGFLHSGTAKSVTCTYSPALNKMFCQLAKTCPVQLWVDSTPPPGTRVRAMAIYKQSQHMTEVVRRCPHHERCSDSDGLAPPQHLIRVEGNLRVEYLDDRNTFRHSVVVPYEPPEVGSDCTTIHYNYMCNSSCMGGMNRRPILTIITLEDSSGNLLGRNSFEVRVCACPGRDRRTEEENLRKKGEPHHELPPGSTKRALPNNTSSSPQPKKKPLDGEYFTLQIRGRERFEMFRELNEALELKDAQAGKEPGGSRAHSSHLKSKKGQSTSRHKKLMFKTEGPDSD
# full-length CBP, P45481 2-2441, sequence (P45481 2-2441 limits assumed): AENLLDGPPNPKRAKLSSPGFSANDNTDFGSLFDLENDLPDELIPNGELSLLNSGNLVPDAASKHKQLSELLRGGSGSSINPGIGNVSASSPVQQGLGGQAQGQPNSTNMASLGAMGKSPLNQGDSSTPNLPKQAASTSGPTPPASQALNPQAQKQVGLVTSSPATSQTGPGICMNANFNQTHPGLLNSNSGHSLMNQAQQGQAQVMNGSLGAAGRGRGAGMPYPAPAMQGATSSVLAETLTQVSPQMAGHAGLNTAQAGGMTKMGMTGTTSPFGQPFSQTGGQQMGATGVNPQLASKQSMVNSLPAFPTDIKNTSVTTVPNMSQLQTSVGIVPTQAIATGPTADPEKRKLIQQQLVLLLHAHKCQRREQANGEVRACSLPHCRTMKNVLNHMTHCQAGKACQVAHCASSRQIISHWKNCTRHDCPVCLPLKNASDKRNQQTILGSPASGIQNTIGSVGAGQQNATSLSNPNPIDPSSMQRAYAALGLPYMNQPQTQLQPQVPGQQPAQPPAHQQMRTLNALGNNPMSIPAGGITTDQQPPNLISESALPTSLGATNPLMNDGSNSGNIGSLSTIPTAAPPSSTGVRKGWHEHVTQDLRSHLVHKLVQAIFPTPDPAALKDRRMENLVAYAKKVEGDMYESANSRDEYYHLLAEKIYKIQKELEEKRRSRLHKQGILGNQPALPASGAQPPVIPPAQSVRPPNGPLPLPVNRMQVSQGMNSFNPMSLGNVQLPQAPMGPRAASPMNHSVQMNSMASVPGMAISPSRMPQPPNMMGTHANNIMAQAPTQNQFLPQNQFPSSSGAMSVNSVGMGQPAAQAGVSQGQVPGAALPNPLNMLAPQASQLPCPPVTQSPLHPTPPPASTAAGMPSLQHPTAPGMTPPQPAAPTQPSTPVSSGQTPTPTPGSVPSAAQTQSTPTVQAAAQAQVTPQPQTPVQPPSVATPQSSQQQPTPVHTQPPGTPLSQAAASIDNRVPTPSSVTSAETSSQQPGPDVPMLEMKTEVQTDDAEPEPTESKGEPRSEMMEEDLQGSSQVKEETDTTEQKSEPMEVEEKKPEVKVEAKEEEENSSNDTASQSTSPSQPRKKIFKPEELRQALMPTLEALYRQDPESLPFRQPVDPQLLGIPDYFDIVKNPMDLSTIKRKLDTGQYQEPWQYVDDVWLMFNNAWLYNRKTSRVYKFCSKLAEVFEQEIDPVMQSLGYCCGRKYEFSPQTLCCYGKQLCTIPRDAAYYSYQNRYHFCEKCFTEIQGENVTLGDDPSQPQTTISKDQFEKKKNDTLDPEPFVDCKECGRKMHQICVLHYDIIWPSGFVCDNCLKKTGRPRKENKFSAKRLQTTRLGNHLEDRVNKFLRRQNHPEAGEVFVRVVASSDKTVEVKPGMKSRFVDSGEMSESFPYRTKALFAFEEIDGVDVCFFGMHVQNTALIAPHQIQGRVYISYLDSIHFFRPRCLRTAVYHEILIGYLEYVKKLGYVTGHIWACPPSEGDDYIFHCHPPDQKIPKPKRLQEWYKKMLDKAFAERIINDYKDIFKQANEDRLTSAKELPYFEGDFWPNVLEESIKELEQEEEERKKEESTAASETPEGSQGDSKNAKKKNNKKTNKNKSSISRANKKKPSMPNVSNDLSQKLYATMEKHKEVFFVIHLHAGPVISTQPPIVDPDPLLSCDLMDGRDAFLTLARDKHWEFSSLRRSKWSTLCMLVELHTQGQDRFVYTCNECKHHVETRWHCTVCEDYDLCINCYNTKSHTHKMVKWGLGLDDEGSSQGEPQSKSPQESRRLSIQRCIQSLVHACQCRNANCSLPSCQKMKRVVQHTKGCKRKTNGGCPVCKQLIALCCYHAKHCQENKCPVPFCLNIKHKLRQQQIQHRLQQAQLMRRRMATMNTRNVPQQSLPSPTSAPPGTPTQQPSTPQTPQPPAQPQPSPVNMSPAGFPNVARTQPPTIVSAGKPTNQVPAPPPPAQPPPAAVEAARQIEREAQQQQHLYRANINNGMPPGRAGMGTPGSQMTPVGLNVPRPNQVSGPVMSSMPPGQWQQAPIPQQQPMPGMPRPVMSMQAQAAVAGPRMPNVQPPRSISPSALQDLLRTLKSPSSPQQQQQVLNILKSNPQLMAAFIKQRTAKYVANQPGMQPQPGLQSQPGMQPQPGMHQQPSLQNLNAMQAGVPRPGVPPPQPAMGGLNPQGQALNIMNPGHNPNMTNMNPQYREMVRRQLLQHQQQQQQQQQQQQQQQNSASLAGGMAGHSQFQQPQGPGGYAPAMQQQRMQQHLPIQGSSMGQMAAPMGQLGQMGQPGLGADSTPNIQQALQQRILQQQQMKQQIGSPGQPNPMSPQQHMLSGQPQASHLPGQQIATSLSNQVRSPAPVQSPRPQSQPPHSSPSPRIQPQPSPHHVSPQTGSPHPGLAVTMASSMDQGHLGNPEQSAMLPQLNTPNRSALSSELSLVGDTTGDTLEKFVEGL
substance,measurement,value
"full-length CBP, P45481 2-2441","p53-dependent transcription (PG13CAT reporter, U2-OS cells)",7 fold
